# Laboratory results from IntAct's records for PubMed 19596235.
# B1: Structure-specific endonuclease subunit SLX4 (Homo sapiens), Q8IY92 (parent)
# chain: MKLSVNEAQLGFYLGSLSHLSACPGIDPRSSEDQPESLKTGQMMDESDEDFKELCASFFQRVKKHGIKEVSGERKTQKAASNGTQIRSKLKRTKQTATKTKTLQGPAEKKPPSGSQAPRTKKQRVTKWQASEPAHSVNGEGGVLASAPDPPVLRETAQNTQTGNQQEPSPNLSREKTRENVPNSDSQPPPSCLTTAVPSPSKPRTAQLVLQRMQQFKRADPERLRHASEECSLEAAREENVPKDPQEEMMAGNVYGLGPPAPESDAAVALTLQQEFARVGASAHDDSLEEKGLFFCQICQKNLSAMNVTRREQHVNRCLDEAEKTLRPSVPQIPECPICGKPFLTLKSRTSHLKQCAVKMEVGPQLLLQAVRLQTAQPEGSSSPPMFSFSDHSRGLKRRGPTSKKEPRKRRKVDEAPSEDLLVAMALSRSEMEPGAAVPALRLESAFSERIRPEAENKSRKKKPPVSPPLLLVQDSETTGRQIEDRVALLLSEEVELSSTPPLPASRILKEGWERAGQCPPPPERKQSFLWEGSALTGAWAMEDFYTARLVPPLVPQRPAQGLMQEPVPPLVPPEHSELSERRSPALHGTPTAGCGSRGPSPSASQREHQALQDLVDLAREGLSASPWPGSGGLAGSEGTAGLDVVPGGLPLTGFVVPSQDKHPDRGGRTLLSLGLLVADFGAMVNNPHLSDVQFQTDSGEVLYAHKFVLYARCPLLIQYVNNEGFSAVEDGVLTQRVLLGDVSTEAARTFLHYLYTADTGLPPGLSSELSSLAHRFGVSELVHLCEQVPIATDSEGKPWEEKEAENCESRAENFQELLRSMWADEEEEAETLLKSKDHEEDQENVNEAEMEEIYEFAATQRKLLQEERAAGAGEDADWLEGGSPVSGQLLAGVQVQKQWDKVEEMEPLEPGRDEAATTWEKMGQCALPPPQGQHSGARGAEAPEQEAPEEALGHSSCSSPSRDCQAERKEGSLPHSDDAGDYEQLFSSTQGEISEPSQITSEPEEQSGAVRERGLEVSHRLAPWQASPPHPCRFLLGPPQGGSPRGSHHTSGSSLSTPRSRGGTSQVGSPTLLSPAVPSKQKRDRSILTLSKEPGHQKGKERRSVLECRNKGVLMFPEKSPSIDLTQSNPDHSSSRSQKSSSKLNEEDEVILLLDSDEELELEQTKMKSISSDPLEEKKALEISPRSCELFSIIDVDADQEPSQSPPRSEAVLQQEDEGALPENRGSLGRRGAPWLFCDRESSPSEASTTDTSWLVPATPLASRSRDCSSQTQISSLRSGLAVQAVTQHTPRASVGNREGNEVAQKFSVIRPQTPPPQTPSSCLTPVSPGTSDGRRQGHRSPSRPHPGGHPHSSPLAPHPISGDRAHFSRRFLKHSPPGPSFLNQTPAGEVVEVGDSDDEQEVASHQANRSPPLDSDPPIPIDDCCWHMEPLSPIPIDHWNLERTGPLSTSSPSRRMNEAADSRDCRSPGLLDTTPIRGSCTTQRKLQEKSSGAGSLGNSRPSFLNSALWDVWDGEEQRPPETPPPAQMPSAGGAQKPEGLETPKGANRKKNLPPKVPITPMPQYSIMETPVLKKELDRFGVRPLPKRQMVLKLKEIFQYTHQTLDSDSEDESQSSQPLLQAPHCQTLASQTYKPSRAGVHAQQEATTGPGAHRPKGPAKTKGPRHQRKHHESITPPSRSPTKEAPPGLNDDAQIPASQESVATSVDGSDSSLSSQSSSSCEFGAAFESAGEEEGEGEVSASQAAVQAADTDEALRCYIRSKPALYQKVLLYQPFELRELQAELRQNGLRVSSRRLLDFLDTHCITFTTAATRREKLQGRRRQPRGKKKVERN
# Variants of: B1
# Conditions: with plk1_human PLK1, P53350
# Chain of plk1_human PLK1, P53350 (P53350 whole entry): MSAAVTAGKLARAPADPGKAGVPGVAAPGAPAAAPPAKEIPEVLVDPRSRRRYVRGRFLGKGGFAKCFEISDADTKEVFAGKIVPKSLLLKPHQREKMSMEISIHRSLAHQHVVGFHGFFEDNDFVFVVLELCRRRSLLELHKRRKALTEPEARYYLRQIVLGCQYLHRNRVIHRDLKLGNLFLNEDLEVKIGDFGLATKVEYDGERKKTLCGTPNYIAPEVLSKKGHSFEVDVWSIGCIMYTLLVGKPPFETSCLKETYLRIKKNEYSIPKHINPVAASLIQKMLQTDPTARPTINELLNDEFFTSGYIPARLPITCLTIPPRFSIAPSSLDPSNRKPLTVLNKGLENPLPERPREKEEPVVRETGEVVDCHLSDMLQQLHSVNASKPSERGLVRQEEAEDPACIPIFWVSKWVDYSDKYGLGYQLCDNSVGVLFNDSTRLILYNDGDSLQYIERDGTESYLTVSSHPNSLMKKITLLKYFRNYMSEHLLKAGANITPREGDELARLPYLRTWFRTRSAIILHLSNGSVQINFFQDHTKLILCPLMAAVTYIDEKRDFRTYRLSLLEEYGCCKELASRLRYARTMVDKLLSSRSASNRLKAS
row,Variant,effect of a mutation on the interaction
1,S1453A,decreasing interaction
